B1: Ig gamma-2 chain C region (protein)
chain: ASTKGPSVFPLAPCSRSTSESTAALGCLVKDYFPEPVTVSWNSGALTSGVHTFPAVLQSSGLYSLSSVVTVPSSNFGTQTYTCNVDHKPSNTKVDKTVERKCCVECPPCPAPPVAGPSVFLFPPKPKDTLMISRTPEVTCVVVDVSHEDPEVQFNWYVDGVEVHNAKTKPREEQFNSTFRVVSVLTVVHQDWLNGKEYKCKVSNKGLPAPIEKTISKTKGQPREPQVYTLPPSREEMTKNQVSLTCLVKGFYPSDISVEWESNGQPENNYKTTPPMLDSDGSFFLYSKLTVDKSRWQQGNVFSCSVMHEALHNHYTQKSLSLSPGK
B2: Platelet basic protein (protein)
chain: SSTKGQTKRNLAKGKEESLDSDLYAELRCMCIKTTSGIHPKNIQSLEVIGKGTHCNQVEVIATLKDGRKICLDPDAPRIKKIVQKKLAGDESAD
B3: Ig lambda chain V-III region LOI (protein)
chain: VTSYVLTQPPSVSVAPGQTARITCGGNNIGSKSVHWYQQKPGQAPVLVVYDDSDRPSGIPERFSGSNSGNTATLTISRVEAGDEADYYCQVWDSSSDHPT
B4: Isoform 2 of N-acetylmuramoyl-L-alanine amidase (protein)
chain: SLPLLMDSVIQALAELEQKVPAAKTRHTASAWLMSAPNSGPHNRLYHFLLGAWSLNATELDPCPLSPELLGLTKEVARHDVREGKEYGVVLAPDGSTVAVEPLLAGLEAGLQGRRVINLPLDSMAAPWETGDTFPDVVAIAPDVRATSSPGLRDGSPDVTTADIGANTPDATKGCPDVQASLPDAKAKSPPTMVDSLLAVTLAGNLGLTFLRGSQTQSHPDLGTEGCWDQLSAPRTFTLLDPKASLLTMAFLNGALDGVILGDYLSRTPEPRPSLSHLLSQYYGAGVARDPGFRSNFRRQNGAALTSASILAQQVWGTLVLLQRLEPVHLQLQCMSQEQLAQVAANATKEFTEAFLGCPAIHPRCRWGAAPYRGRPKLLQLPLGFLYVHHTYVPAPPCTDFTRCAANMRSMQRYHQDTQGWGDIGYSFVVGSDGYVYEGRGWHWVGAHTLGHNSRGFGVAIVGNYTAALPTEAALRTVRDTLPSCAVRAGLLRPDYALLGHRQLVRTDCPGDALFDLLRTWPHFTAVSLRSLHYTARRPSVYTSSTRPLPPACNSCARTASARPPTSRRHVYSGNLGPAFAGHSAGNIPDPVTSAYAASAQPQTQPACPFPSS
B5: Complement C2 (protein)
chain: APSCPQNVNISGGTFTLSHGWAPGSLLTYSCPQGLYPSPASRLCKSSGQWQTPGATRSLSKAVCKPVRCPAPVSFENGIYTPRLGSYPVGGNVSFECEDGFILRGSPVRQCRPNGMWDGETAVCDNGAGHCPNPGISLGAVRTGFRFGHGDKVRYRCSSNLVLTGSSERECQGNGVWSGTEPICRQPYSYDFPEDVAPALGTSFSHMLGATNPTQKTKESLGRKIQIQRSGHLNLYLLLDCSQSVSENDFLIFKESASLMVDRIFSFEINVSVAIITFASEPKVLMSVLNDNSRDMTEVISSLENANYKDHENGTGTNTYAALNSVYLMMNNQMRLLGMETMAWQEIRHAIILLTDGKSNMGGSPKTAVDHIREILNINQKRNDYLDIYAIGVGKLDVDWRELNELGSKKDGERHAFILQDTKALHQVFEHMLDVSKLTDTICGVGNMSANASDQERTPWHVTIKPKSQETCRGALISDQWVLTAAHCFRDGNDHSLWRVNVGDPKSQWGKEFLIEKAVISPGFDVFAKKNQGILEFYGDDIALLKLAQKVKMSTHARPICLPCTMEANLALRRPQGSTCRDHENELLNKQSVPAHFVALNGSKLNINLKMGVEWTSCAEVVSQEKTMFPNLTDVREVVTDQFLCSGTQEDESPCKGESGGAVFLERRFRFFQVGLVSWGLYNPCLGSADKNSRKRAPRSKVPPPRDFHINLFRMQPWLRQHLGDVLNFLPL
B6: Apolipoprotein C-II (protein)
chain: TQQPQQDEMPSPTFLTQVKESLSSYWESAKTAAQNLYEKTYLPAVDEKLRDLYSKSTAAMSTYTGIFTDQVLSVLKGEE
B7: Thyroxine-binding globulin (protein)
chain: ASPEGKVTACHSSQPNATLYKMSSINADFAFNLYRRFTVETPDKNIFFSPVSISAALVMLSFGACCSTQTEIVETLGFNLTDTPMVEIQHGFQHLICSLNFPKKELELQIGNALFIGKHLKPLAKFLNDVKTLYETEVFSTDFSNISAAKQEINSHVEMQTKGKVVGLIQDLKPNTIMVLVNYIHFKAQWANPFDPSKTEDSSSFLIDKTTTVQVPMMHQMEQYYHLVDMELNCTVLQMDYSKNALALFVLPKEGQMESVEAAMSSKTLKKWNRLLQKGWVDLFVPKFSISATYDLGATLLKMGIQHAYSENADFSGLTEDNGLKLSNAAHKAVLHIGEKGTEAAAVPEVELSDQPENTFLHPIIQIDRSFMLLILERSTRSILFLGKVVNPTEA
B8: Desmoglein-1 (protein)
chain: EWIKFAAACREGEDNSKRNPIAKIHSDCAANQQVTYRISGVGIDQPPYGIFVINQKTGEINITSIVDREVTPFFIIYCRALNSMGQDLERPLELRVRVLDINDNPPVFSMATFAGQIEENSNANTLVMILNATDADEPNNLNSKIAFKIIRQEPSDSPMFIINRNTGEIRTMNNFLDREQYGQYALAVRGSDRDGGADGMSAECECNIKILDVNDNIPYMEQSSYTIEIQENTLNSNLLEIRVIDLDEEFSANWMAVIFFISGNEGNWFEIEMNERTNVGILKVVKPLDYEAMQSLQLSIGVRNKAEFHHSIMSQYKLKASAISVTVLNVIEGPVFRPGSKTYVVTGNMGSNDKVGDFVATDLDTGRPSTTVRYVMGNNPADLLAVDSRTGKLTLKNKVTKEQYNMLGGKYQGTILSIDDNLQRTCTGTININIQSFGNDDRTNTEPNTKITTNTGRQESTSSTNYDTSTTSTDSSQVYSSEPGNGAKDLLSDNVHFGPAGIGLLIMGFLVLGLVPFLMICCDCGGAPRSAAGFEPVPECSDGAIHSWAVEGPQPEPRDITTVIPQIPPDNANIIECIDNSGVYTNEYGGREMQDLGGGERMTGFELTEGVKTSGMPEICQEYSGTLRRNSMRECREGGLNMNFMESYFCQKAYAYADEDEGRPSNDCLLIYDIEGVGSPAGSVGCCSFIGEDLDDSFLDTLGPKFKKLADISLGKESYPDLDPSWPPQSTEPVCLPQETEPVVSGHPPISPHFGTTTVISESTYPSGPGVLHPKPILDPLGYGNVTVTESYTTSDTLKPSVHVHDNRPASNVVVTERVVGPISGADLHGMLEMPDLRDGSNVIVTERVIAPSSSLPTSLTIHHPRESSNVVVTERVIQPTSGMIGSLSMHPELANAHNVIVTERVVSGAGVTGISGTTGISGGIGSSGLVGTSMGAGSGALSGAGISGGGIGLSSLGGTASIGHMRSSSDHHFNQTIGSASPSTARSRITKYSTVQYSK
B9: Ig lambda chain V-III region (protein)
chain: SELTQDPAVSVALGQTVRITCQGDSLRSYYASWYQQKPGQAPVLVIYGKNNRPSGIPDRFSGSSSGNTASLTITGAQAEDEADYYCNSRDSS

The molecules below were run against T1, Abeta-42 plaque particles (Homo sapiens, UniProt P05067) (assay: Mass spectroscopy proteomics, semi-quantitative binding affinity of serum proteins (plaqueproteome, Table 2)). Conditions: higher number = stronger affinity.
T1 construct: Abeta 1-42
Method in brief: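 AD patient serum or plasma (50% in PBS) was incubated with Abeta-42 aggregates (30 μg) for 1 h at 37 °C, then stained with Thioflavin S for 30 min. Labeled particles were FACS-sorted, trypsin/Lys-C digested overnight and analyzed by MS/MS. Sequest searched human UniProt; Scaffold/Protein Prophet validated the identifications.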

Molecule | Semi-quantitative analysis of proteins binding to different plaque particles: Abeta-42
B1 | 11
B2 | 0
B3 | 2
B4 | 0
B5 | 0
B6 | 0
B7 | 2
B8 | 5
B9 | 0

These molecules were tested on High Density cholesterol (Chl Large) plaque particles in the same assay as above. Conditions: higher number = stronger affinity.
Design: species or system human
Method in brief: (§1)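 Atherosclerotic plasma/serum (50% in PBS) + 30 μg cholesterol aggregates, 1 hr 37° C; FACS gates split low- vs high-density particles. Acetone precipitation, urea/ProteaseMAX, acrylamide alkylation, overnight Trypsin/Lys C at 37° C; Sequest search, Scaffold/Protein Prophet validation.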

Molecule | Semi-quantitative analysis of proteins binding to different plaque particles: Chl Large
B1 | 12
B2 | 0
B3 | 1
B4 | 4
B5 | 0
B6 | 0
B7 | 0
B8 | 0
B9 | 1

What follows are molecules tested on Low density cholesterol (Chl small) plaque particles in the same assay as above. Conditions: higher number = stronger affinity.
Design: species or system human
Method in brief: as §1

Molecule | Semi-quantitative analysis of proteins binding to different plaque particles: Chl small
B1 | 14
B2 | 0
B3 | 1
B4 | 1
B5 | 1
B6 | 1
B7 | 1
B8 | 0
B9 | 1

These molecules were tested on Tau plaque particles in the same assay as above. Conditions: higher number = stronger affinity.
Design: species or system human
Method in brief: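 Synthetic Tau-74 and Tau-275 peptides (1 mg/mL PBS, 37° C, 2 h) aggregated; 30 μg aggregates incubated with 50% serum/plasma 1 h at 37° C, stained with Thioflavin S, and plaque particles sorted by flow cytometry. Bound proteins trypsin-digested and identified by MS/MS against human UniProt.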

Molecule | Semi-quantitative analysis of proteins binding to different plaque particles: Tau
B1 | 11
B2 | 2
B3 | 1
B4 | 5
B5 | 0
B6 | 0
B7 | 1
B8 | 0
B9 | 2

These molecules were tested against T2, alpha-synuclein plaque particles (Homo sapiens, UniProt P37840) in the same assay as above. Conditions: higher number = stronger affinity.
T2 construct: 140 amino acids polypeptide
Method in brief: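 AD-subject plasma or serum (800 μL of 50%) mixed with 30 μg preformed alpha-synuclein aggregates for 1 h at 37 °C; Thioflavin S-positive particles isolated by flow sorting. After reduction, acrylamide alkylation and overnight tryptic digestion, serum proteins identified by MS/MS with Sequest and Scaffold.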

Molecule | Semi-quantitative analysis of proteins binding to different plaque particles: Synuclein
B1 | 10
B2 | 1
B3 | 2
B4 | 2
B5 | 0
B6 | 1
B7 | 0
B8 | 0
B9 | 2

Source: patent US9618524B2, “Method, composition, isolation and identification of a plaque particle and related biomarker” (Plaxgen Inc., priority 2012, dated 2017)
